Values of other authors as cited in paper PMC6353226.

Columns and labels:
[1] = biological target: IGF1R pY1165 (Homo sapiens) (UniProt P08069)
[2] = biological target: IGF1R pY1161 (Homo sapiens) (UniProt P08069)

Kd [1]: 900 nM | Kd [2]: 900 nM
Substance: YES1 SH2 (from UniProt P07947)
